Holding throughout (assay): BLI
Test [1] deals with RSC3.
The target in test [2] is ZM109_FL.
Test [3] concerns the target YU2_FL.

B1: G54A (heavy chain) (antibody, V domains shown)
VH: QVQLVQSGGQMKKPGESMRISCRASGYEFIDCTLNWIRLAPGKRPEWMGWLKPRAGAVNYARPLQGRVTMTRDVYSDTAFLELRSLTVDDTAVYFCTRGKNCDYNWDFEHWGRGTPVIVSS
VL: EIVLTQSPGTLSLSPGETAIISCRTSQYGSLAWYQQRPGQAPRLVIYSGSTRAAGIPDRFSGSRWGPDYNLTISNLESGDFGVYYCQQYEFFGQGTKVQVDI
With B1, the Kd was 2.64 nM in test [1], 76 nM in test [2] and 6.51 nM in test [3].

B2: V3A (light chain) (antibody, V domains shown)
VH: QVQLVQSGGQMKKPGESMRISCRASGYEFIDCTLNWIRLAPGKRPEWMGWLKPRGGAVNYARPLQGRVTMTRDVYSDTAFLELRSLTVDDTAVYFCTRGKNCDYNWDFEHWGRGTPVIVSS
VL: EIALTQSPGTLSLSPGETAIISCRTSQYGSLAWYQQRPGQAPRLVIYSGSTRAAGIPDRFSGSRWGPDYNLTISNLESGDFGVYYCQQYEFFGQGTKVQVDI
For the molecule B2, the values for the Kd in test [1], in test [2] and in test [3] were 6.09 nM, 54.7 nM and 27.6 nM, respectively.

(Values after patent US20140322163A1 (published 2014).)
